B1: Gamma-crystallin C, residues 91 to 170; numbered along this chain, P07315 (parent)
chain: RLYEREDHKGLMMELSEDCPSIQDRFHLSEIRSLHVLEGCWVLYELPNYRGRQYLLRPQEYRRCQDWGAMDAKAGSLRRV

Variants of: B1
Experiment: abundance fitness (aPCA) (normalised: wild type 0, dead -1); higher = more abundant; growth selection in yeast, the domain comes from the species named
Settings: Homo sapiens

Abundance fitness, by site and new letter:
N48: H -0.022; T -0.823; C -0.339; P -0.65; W -0.151
G39: W -0.94; D -0.298; P -0.798; H -0.151; M -0.93; E -0.186; V -0.924; Y -0.566; N -0.65; L -0.89; F -0.759; A -0.56; T -0.892; C -0.536; Q -0.853
P58: D -0.167; N -0.268; K -0.15; C -0.334; H -0.587; F -0.882; R -0.453; I -0.623; A -0.167; L -0.98; T -0.105; S -0.202; V -0.378; G -0.744
V36: S -0.969; R -1.08; N -0.772; M -0.742; W -0.788; Q -0.713; L -0.632; Y -0.947
E38: F -0.216; G -0.186; I -0.711; L -0.379; Q 0.171; P -0.642; M -0.222; H -0.119; N 0.102; K -0.083; V -0.222; S -0.015; D 0.013; A -0.059; C -0.242
R57: D -0.174; S 0.018; G -0.134; E -0.064; F -0.067; T 0.052; C -0.215; K -0.148; W -0.179; V -0.14; M -0.297; A 0.003; Q -0.045; I -0.566; N 0.021; L -0.24; H -0.034
Y44: W -0.599; A -0.671; Q -0.567; V -0.784; G -0.608; P -0.905; H -0.306; S -0.568; N -0.325; T -1.04; R -0.478; F -0.069; E -0.957; L -0.648
L37: N -0.363; M -0.158; H -0.351; K -0.136; D -0.254; A -0.553; V -0.033; Y -0.3; P -0.813; C -0.578; F -0.263; E -0.481; T -0.326; Q -0.256; I -0.062; S -0.372; W -0.799
Y54: G -0.968; A -0.891; E -1.19; M -0.692; Q -0.783; R -0.897; I -0.395; W -0.36; F -0.118; P -1; K -0.76; T -0.717; S -0.614; L -0.727
P47: L -0.601; Q -0.348; A -0.07; W -0.832; Y -0.891; T -0.449; D -0.178; V -0.591; C -0.109; R -0.502
E60: F -0.468; C -0.172; K -0.197; I -0.219; Q 0.034; H -0.174; L -0.001; P -0.142; D -0.235; M -0.162; A 0.045
G51: A -0.833; L -0.807; R -0.589; S -0.962; C -0.695; T -0.49; H -0.752; P -1.03; W -0.268; V -0.93
Q59: L -0.438; H -0.245; C -0.052; K 0.135; E -0.354; F -0.377; R -0.047; P -0.994; M -0.038; V -0.266; D -0.217; S -0.116; N -0.364; A 0.041; I -0.145; G 0.02; W -0.486

Reference: the Human Domainome abundance scans (Beltran et al. 2025)
